Source: paper PMC10673654, “MdAIL5 overexpression promotes apple adventitious shoot regeneration by regulating hormone signaling and activating the expression of shoot development-related genes”

T1: MdAIL5 (Malus domestica (apple)?, UniProt A0A678R5P4 1-555)
T1 sequence: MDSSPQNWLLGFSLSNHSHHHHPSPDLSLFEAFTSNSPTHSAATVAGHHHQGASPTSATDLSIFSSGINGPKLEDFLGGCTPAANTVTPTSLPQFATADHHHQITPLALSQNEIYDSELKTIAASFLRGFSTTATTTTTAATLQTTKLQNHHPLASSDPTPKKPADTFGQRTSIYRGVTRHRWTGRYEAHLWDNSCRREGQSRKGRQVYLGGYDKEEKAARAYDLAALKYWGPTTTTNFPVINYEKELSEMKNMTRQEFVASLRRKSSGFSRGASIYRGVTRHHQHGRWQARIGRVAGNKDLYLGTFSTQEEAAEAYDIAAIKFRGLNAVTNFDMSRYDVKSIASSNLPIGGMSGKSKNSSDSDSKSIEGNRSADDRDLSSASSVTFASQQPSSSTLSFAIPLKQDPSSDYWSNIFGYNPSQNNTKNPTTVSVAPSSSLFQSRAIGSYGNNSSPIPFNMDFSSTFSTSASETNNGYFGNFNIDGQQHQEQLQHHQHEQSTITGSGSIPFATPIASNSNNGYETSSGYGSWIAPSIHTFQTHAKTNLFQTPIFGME

B1: Probe with CACGCATCCCGAAG (Table S1: MdHB14pro; text and Fig. 6d: MdARF9 promoter) (dsDNA)
DNA 1: CGTTACACCAAACCACACGCATCCCGAAGCGCCGTTCACGTCAA
DNA 2: TTGACGTGAACGGCGCTTCGGGATGCGTGTGGTTTGGTGTAACG
B2: Probe with CACAATTGCCTATG (Table S1: MdARF9pro; text and Fig. 6e: MdHB14 promoter) (dsDNA)
DNA 1: TGGGCTATTACATCCCACAATTGCCTATGAGTGGCCAATTTTTCCT
DNA 2: AGGAAAAATTGGCCACTCATAGGCAATTGTGGGATGTAATAGCCCA

Molecular target: T1, MdAIL5
Assay: EMSA; LightShift Chemiluminescent EMSA Kit per manufacturer; buffer, salt, pH and temperature not stated
Conditions: protein: recombinant; tags: GST (N-terminal, pGEX-4T-1); cold version unlabeled; blunt

Binder | binding result
B1 | binds
B2 | binds
